Measured values as given in paper PMC3479173.

T1: THAP1 THAP domain WT (human, UniProt Q9NVV9 1-81)
T1 sequence: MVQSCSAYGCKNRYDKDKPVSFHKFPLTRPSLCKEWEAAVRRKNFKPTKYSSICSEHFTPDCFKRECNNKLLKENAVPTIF

T2: THAP1 THAP domain N12K (human, UniProt Q9NVV9 1-81, N12K)
T2 sequence: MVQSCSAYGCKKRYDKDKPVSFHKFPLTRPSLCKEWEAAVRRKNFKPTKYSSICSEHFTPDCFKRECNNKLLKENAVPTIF

T3: THAP1 THAP domain Y8C (human, UniProt Q9NVV9 1-81, Y8C)
T3 sequence: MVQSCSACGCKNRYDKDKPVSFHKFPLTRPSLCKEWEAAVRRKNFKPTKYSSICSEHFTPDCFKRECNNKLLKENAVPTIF

T4: THAP1 THAP domain F81L (human, UniProt Q9NVV9 1-81, F81L)
T4 sequence: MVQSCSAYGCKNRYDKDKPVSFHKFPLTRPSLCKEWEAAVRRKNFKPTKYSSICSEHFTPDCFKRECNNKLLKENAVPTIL

T5: THAP1 THAP domain D17G (human, UniProt Q9NVV9 1-81, D17G)
T5 sequence: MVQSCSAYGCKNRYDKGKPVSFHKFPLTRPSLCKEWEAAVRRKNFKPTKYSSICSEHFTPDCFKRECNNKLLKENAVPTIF


Key:
THAP1 THAP domain WT [1] = target: T1, THAP1 THAP domain WT; test: ITC
THAP1 THAP domain N12K [2] = target: T2, THAP1 THAP domain N12K; test: ITC
THAP1 THAP domain WT [3] = target: T1, THAP1 THAP domain WT; test: fluorescence quenching
THAP1 THAP domain N12K [4] = target: T2, THAP1 THAP domain N12K; test: fluorescence quenching
THAP1 THAP domain Y8C [5] = target: T3, THAP1 THAP domain Y8C; test: ITC
THAP1 THAP domain F81L [6] = target: T4, THAP1 THAP domain F81L; test: ITC
THAP1 THAP domain Y8C [7] = target: T3, THAP1 THAP domain Y8C; test: fluorescence quenching
THAP1 THAP domain D17G = target: T5, THAP1 THAP domain D17G; test: fluorescence quenching
THAP1 THAP domain F81L [8] = target: T4, THAP1 THAP domain F81L; test: fluorescence quenching

Row | Binder | Kd (THAP1 THAP domain WT [1]) | Kd (THAP1 THAP domain N12K [2]) | Kd (THAP1 THAP domain WT [3]) | Kd (THAP1 THAP domain N12K [4]) | Kd (THAP1 THAP domain Y8C [5]) | Kd (THAP1 THAP domain F81L [6]) | Kd (THAP1 THAP domain Y8C [7]) | Kd (THAP1 THAP domain D17G) | Kd (THAP1 THAP domain F81L [8])
1 | 14-bp non-specific DNA (ns) (dsDNA) DNA 1: GATTTGCATTTTAA DNA 2: TTAAAATGCAAATC | 8930 ± 1280 nM | 1750 ± 500 nM | 1800 ± 150 nM | 400 ± 65 nM | – | – | – | – | –
2 | RRM1 16-bp DNA probe (dsDNA) DNA 1: GCTTGTGTGGGCAGCG DNA 2: CGCTGCCCACACAAGC | 540 ± 190 nM | – | 150 ± 10 nM | – | 510 ± 100 nM | 700 ± 60 nM | 230 ± 20 nM | 25 ± 5 nM | 100 ± 10 nM
